# Measured values as given in patent publication US20140057807A1 (UNIVERSITY OF CHICAGO, published 2014).
# Target: T1, yeast small ubiquitin-like modifier protein (yeast, UniProt Q12306 3-98 = SUMO)
# T1 construct: GST fusion in most phage ELISAs, His-tagged or tag-cleaved elsewhere; also called ySUMO; yeast SUMO
# Assay: SPR; column 'Estimated Kd (nM)'
# In short: (§1)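 Purified His-tagged molecules were captured on an NTA surface of a Biacore 2000 to reach a theoretical maximum target response of 100-200 RU, and target at varying concentrations was flowed at 30 μL/min. Estimated Kd values come from surface plasmon resonance binding signals, analysed either by kinetic fitting in BIAevaluation software or by fitting equilibrium responses to a saturation binding curve with 1:1 binding.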
# T1 sequence (Q12306 3-98 limits assumed): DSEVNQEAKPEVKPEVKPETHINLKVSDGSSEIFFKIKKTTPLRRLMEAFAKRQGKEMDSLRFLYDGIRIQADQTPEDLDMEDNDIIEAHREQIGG
row,Binder,Kd [µM]
1,"ySMB-17 (designed binder, variable loops only; library YSGW) VSSVPTKLEVVAATPTSLLISWDASSSSVSYYRITYGETGGNSPVQEFTVPGSSSTATISGLSPGVDYTITVYAYIQYYDLYYASPISINYRT",0.04
2,"ySMB-20 (designed binder, variable loops only; library YSGW) VSSVPTKLEVVAATPTSLLISWDAGYYMNYYMVDYYRITYGETGGNSPVQEFTVPGSSSTATISGLSPGVDYTITVYAYWYDEYGQYWWSESPISINYRT",0.066

# Target: human ubiquitin (human, UniProt P0CG48 1-76)
# Assay: phage display selection hit, BL1 library
row,Binder,binding result
1,SEQ ID NO 22 (designed binder) VSSVPTKLEVVAATPTSLLISWDAPAVTVDHYFITYGETGGSWSYYQEFAVPGSKSTATISGLSPGVDYTITVYAYSYEPYYYYNPISINYRT,binds
2,SEQ ID NO 24 (designed binder) VSSVPTKLEVVAATPTSLLISWDAPAVTVDLYIITYGETGSYHGWQTFTVPGSKSTATISGLSPGVDYTITVYADSSTWPYWYYSSPISINYRT,binds
3,SEQ ID NO 23 (designed binder) VSSVPTKLEVVAATPTSLLISWDAPAVTVDFYVITYGETGSFSPPQEFTVPGSKSTATISGLSPGVDYTITVYAMMWGWEYYDYNISPISINYRT,binds
4,SEQ ID NO 25 (designed binder) VSSVPTKLEVVAATPTSLLISWDAPAVTVDFYVITYGETGSFSPPQEFTVPGSKSTATISGLSPGVDYTITVYAMMWGWEYYDYNISPISINYRT,binds
5,SEQ ID NO 27 (designed binder) VSSVPTKLEVVAATPTSLLISWDAPAVTVDFYVITYGETGSFSPPQEFTVPGSKSTATISGLSPGVDYTITVYAMMWGWEYYDYNISPISINYRT,binds
6,SEQ ID NO 19 (designed binder) VSSVPTKLEVVAATPTSLLISWDAPAVTVDFYIITYGETGGGYYSYQTFTVPGSKSTATISGLSPGVDYTITVYANEFGKSYPYTMNPISINYRT,binds
7,SEQ ID NO 20 (designed binder) VSSVPTKLEVVAATPTSLLISWDAPAVTVLYYVITYGETGGNSPVQEFTVPGSKSTATISGLSPGVDYTITVYATDYGPGYPYESPISINYRT,binds
8,SEQ ID NO 21 (designed binder) VSSVPTKLEVVAATPTSLLISWDAPAVTVDLYHITYGETGGVWSGYQEFTVPGSKSTATISGLSPGVDYTITVYAVQHQEIWPYYYSPISINYRT,binds
9,SEQ ID NO 26 (designed binder) VSSVPTKLEVVAATPTSLLISWDAPAVTVDHYVITYGETGGVWYGYQEFTVPGSKSTATISGLSPGVDYTITVYAMTSYFQEYWSPISINYRT,binds

# Target: T1, yeast small ubiquitin-like modifier …
# Assay: SPR; column 'Estimated Kd (nM)' [Continued]
# In short: as §1
row,Binder,Kd [µM]
1,"ySMB-69 (designed binder, variable loops only; library YSGW) VSSVPTKLEVVAATPTSLLISWDASSSSVSYYRITYGETGGNSPVQEFTVPGSSSTATISGLSPGVDYTITVYAYYSTYWYDWSGSPISINYRT",0.138
2,"ySMB-71 (designed binder, variable loops only; library YSGW) VSSVPTKLEVVAATPTSLLISWDASSSSVSYYRITYGETGGNSPVQEFTVPGSSSTATISGLSPGVDYTITVYAYYVGDGYYWSESPISINYRT",0.23
3,"ySMB-74 (designed binder, variable loops only; library YSGW) VSSVPTKLEVVAATPTSLLISWDASSSSVSYYRITYGETGGNSPVQEFTVPGSSSTATISGLSPGVDYTITVYAYYYFYDYWMAYSPISINYRT",0.544
4,"ySMB-90 (designed binder, variable loops only; library YS) VSSVPTKLEVVAATPTSLLISWDASSSSVSYYRITYGETGGNSPVQEFTVPGSSSTATISGLSPGVDYTITVYAYYYSYYYSYSYSPISINYRT",0.32
